Assay results published in US20190382493A1 (CYTOMX THERAPEUTICS, published 2019).

T1: human B7-1-Fc (R&D Systems) (human, UniProt P33681 35-242)
T1 construct: not shown: Fc part of the bought fusion protein; not described
T1 sequence (looked up): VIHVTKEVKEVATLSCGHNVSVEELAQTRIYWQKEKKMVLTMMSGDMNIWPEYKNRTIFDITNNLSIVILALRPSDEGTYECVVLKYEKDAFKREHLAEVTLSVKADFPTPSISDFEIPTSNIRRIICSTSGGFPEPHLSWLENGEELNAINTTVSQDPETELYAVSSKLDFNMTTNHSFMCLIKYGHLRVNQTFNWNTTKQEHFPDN


Assays:
[1] = molecular target: T2, anti-PDL1 antibody C5H9v2; assay: binding of antibody to peptide-displaying clones
T2 construct: IgG; also called anti-PDL1 parental antibody C5H9v2

[2] = molecular target: Fab of anti-PDL1 antibody C5H9v2; assay: binding of Fab to peptide-displaying clones
[3] = molecular target: T1, human B7-1-Fc (R&D Systems); assay: Fab-phage ELISA, antigen adsorbed
Excerpt: Forty seven (47) individual isolates were chosen from the final pool. […] Briefly, the antigens were adsorbed to the wells of a 96-well ELISA plate, each ligand on a separate plate. Phage were applied to correlative wells on each plate and allowed to bind. Bound phage were visualized with an anti-M13-HRP conjugate and developed with the chromogenic substrate TMB. Based on the results of the ELISA and DNA sequence, 6 unique clones with matured heavy variable CDR3 domains and 10 heavy variable CDR2 domains were chosen for further study. […] Table 4 lists the heavy variable domains encoded by the clones and SEQ ID NOs for the nucleic acid sequences and amino acid sequences of their respective heavy chains.

| Binder | binding result [1] | binding result [2] | binding result [3] |
| --- | --- | --- | --- |
| VCYYMDWLGRNWCSS [masking moiety PL12] | binds | binds |  |
| DGPRCFVSGECSPIG [masking moiety PL08] | binds | binds |  |
| YLPCHFVPIGACNNK [masking moiety PL14] | binds | binds |  |
| IFCHMGVVVPQCANY [masking moiety PL15] | binds | binds |  |
| YCEVSELFVLPWCMG [masking moiety PL01] | binds | binds |  |
| FGPRCGEASTCVPYE [masking moiety PL05] | binds | binds |  |
| GIALCPSHFCQLPQT [masking moiety PL07] | binds | binds |  |
| LCDLFKLREFPYCMG [masking moiety PL13] | binds | binds |  |
| PCHPHPYDARPYCNV [masking moiety PL10] | binds | binds |  |
| PCHPHPYDAAPYCNV (differs from PL10 by one alanine) [masking moiety PL21] | binds | binds |  |
| ACHPHPYDARPYCNV (differs from PL10 by one alanine) [masking moiety PL16] | binds | binds |  |
| PCHAHPYDARPYCNV (differs from PL10 by one alanine) [masking moiety PL24] | binds | binds |  |
| PCHPHAYDARPYCNV (differs from PL10 by one alanine) [masking moiety PL18] | binds | binds |  |
| PCHPHPYDARPACNV (differs from PL10 by one alanine) [masking moiety PL22] | binds | binds |  |
| PCHPHPYAARPYCNV (differs from PL10 by one alanine) [masking moiety PL20] | binds | binds |  |
| PCHPHPYDARAYCNV (differs from PL10 by one alanine) [masking moiety PL25] | binds | binds |  |
| PCHPAPYDARPYCNV (differs from PL10 by one alanine) [masking moiety PL17] | binds | binds |  |
| PCHPHPADARPYCNV (differs from PL10 by one alanine) [masking moiety PL19] | binds | binds |  |

| Binder | binding result [1] | binding result [2] | binding result [3] |
| --- | --- | --- | --- |
| PCHPHPYDARPYCAV (differs from PL10 by one alanine) [masking moiety PL23] | binds | binds |  |
| SCLMHPHYAHDYCYV [masking moiety PL02] | binds | binds |  |
| PDL1 A05 Fab-phage (Fab, V domains shown) VH: EVQLLESGGGLVQPGGSLRLSCAASGFTFSSYAMSWVRQAPGKGLEWVSSIWKQGIVTVYDSVKGRFTISRDNSKNTLYLQMNSLRAEDTAVYYCAKSSAGFDYWGQGTLVTV VL: DIQMTQSPSSLSASVGDRVTITCRASQSISSYLNWYQQKPGKAPKLLIYYASTLQSGVPSRFSGSGSGTDFTLTISSLQPEDFATYYCQQDNGYPSTFGQGTKVEIKR |  |  | no binding |
| PDL1 G12 Fab-phage (Fab, V domains shown) VH: EVQLLESGGGLVQPGGSLRLSCAASGFTFSSYAMSWVRQAPGKGLEWVSSIWYQGLVTVYDSVKGRFTISRDNSKNTLYLQMNSLRAEDTAVYYCAKSSAGFDYWGQGTLVTVSS VL: DIQMTQSPSSLSASVGDRVTITCRASQSISSYLNWYQQKPGKAPKLLIYYASTLQSGVPSRFSGSGSGTDFTLTISSLQPEDFATYYCQQDNGYPSTFGQGTKVEIKR |  |  | no binding |
| PDL1 E11 Fab-phage (Fab, V domains shown) VH: EVQLLESGGGLVQPGGSLRLSCAASGFTFSSYAMSWVRQAPGKGLEWVSDIWKQGFATADSVKGRFTISRDNSKNTLYLQMNSLRAEDTAVYYCAKSSAGFDYWGQGTLVTVSS VL: DIQMTQSPSSLSASVGDRVTITCRASQSISSYLNWYQQKPGKAPKLLIYYASTLQSGVPSRFSGSGSGTDFTLTISSLQPEDFATYYCQQDNGYPSTFGQGTKVEIKR |  |  | no binding |
| PDL1 C05 Fab-phage (Fab, V domains shown) VH: EVQLLESGGGLVQPGGSLRLSCAASGFTFSSYAMSWVRQAPGKGLEWVSSIWRNGIVTVYDSVKGRFTISRDNSKNTLYLQMNSLRAEDTAVYYCAKSSAGFDYWGQGTLVTVSS VL: DIQMTQSPSSLSASVGDRVTITCRASQSISSYLNWYQQKPGKAPKLLIYYASTLQSGVPSRFSGSGSGTDFTLTISSLQPEDFATYYCQQDNGYPSTFGQGTKVEIKR |  |  | no binding |
| PDL1 G10 Fab-phage (Fab, V domains shown) VH: EVQLLESGGGLVQPGGSLRLSCAASGFTFSSYAMSWVRQAPGKGLEWVSSIGRQGLITVYDSVKGRFTISRDNSKNTLYLQMNSLRAEDTAVYYCAKSSAGFDYWGQGTLVTVSS VL: DIQMTQSPSSLSASVGDRVTITCRASQSISSYLNWYQQKPGKAPKLLIYYASTLQSGVPSRFSGSGSGTDFTLTISSLQPEDFATYYCQQDNGYPSTFGQGTKVEIKR |  |  | no binding |
| PDL1 C10 Fab-phage (Fab, V domains shown) VH: EVQLLESGGGLVQPGGSLRLSCAASGFTFSSYAMSWVRQAPGKGLEWVSDIWKQGMVTVYDSVKGRFTISRDNSKNTLYLQMNSLRAEDTAVYYCAKSSAGFDYWGQGTLVTVSS VL: DIQMTQSPSSLSASVGDRVTITCRASQSISSYLNWYQQKPGKAPKLLIYYASTLQSGVPSRFSGSGSGTDFTLTISSLQPEDFATYYCQQDNGYPSTFGQGTKVEIKR |  |  | no binding |
| PDL1 H06 Fab-phage (Fab, V domains shown) VH: EVQLLESGGGLVQPGGSLRLSCAASGFTFSSYAMSWVRQAPGKGLEWVSSIWRQGLATAYDSVKGRFTISRDNSKNTLYLQMNSLRAEDTAVYYCAKSSAGFDYWGQGTLVTVSS VL: DIQMTQSPSSLSASVGDRVTITCRASQSISSYLNWYQQKPGKAPKLLIYYASTLQSGVPSRFSGSGSGTDFTLTISSLQPEDFATYYCQQDNGYPSTFGQGTKVEIKR |  |  | no binding |
| PDL1 D08 Fab-phage (Fab, V domains shown) VH: EVQLLESGGGLVQPGGSLRLSCAASGFTFSSYAMSWVRQAPGKGLEWVSSIWRQGLATAYDSVKGRFTISRDNSKNTLYLQMNSLRAEDTAVYYCAKSSAGFDYWGQGTLVTVSS VL: DIQMTQSPSSLSASVGDRVTITCRASQSISSYLNWYQQKPGKAPKLLIYYASTLQSGVPSRFSGSGSGTDFTLTISSLQPEDFATYYCQQDNGYPSTFGQGTKVEIKR |  |  | no binding |
| PDL1 D01 Fab-phage (Fab, V domains shown) VH: EVQLLESGGGLVQPGGSLRLSCAASGFTFSSYAMSWVRQAPGKGLEWVSSIWKQGIVTVYDSVKGRFTISRDNSKNTLYLQMNSLRAEDTAVYYCAKSSAGFDYWGQGTLVTVSS VL: DIQMTQSPSSLSASVGDRVTITCRASQSISSYLNWYQQKPGKAPKLLIYYASTLQSGVPSRFSGSGSGTDFTLTISSLQPEDFATYYCQQDNGYPSTFGQGTKVEIKR |  |  | no binding |
| PDL1 G09 Fab-phage (Fab, V domains shown) VH: EVQLLESGGGLVQPGGSLRLSCAASGFTFSSYAMSWVRQAPGKGLEWVSEIVATGILTSYDSVKGRFTISRDNSKNTLYLQMNSLRAEDTAVYYCAKSSAGFDYWGQGTLVTVSS VL: DIQMTQSPSSLSASVGDRVTITCRASQSISSYLNWYQQKPGKAPKLLIYYASTLQSGVPSRFSGSGSGTDFTLTISSLQPEDFATYYCQQDNGYPSTFGQGTKVEIKR |  |  | no binding |
| LCEVLMLLQHPWCMG [masking moiety PL03] | binds | binds |  |
| PCYWHPFFAYRYCNT [masking moiety PL11] | binds | binds |  |
| LCYKLDYDDRSYCHI [masking moiety PL09] | binds | binds |  |
| IACRHFMEQLPFCHH [masking moiety PL04] | binds | binds |  |
| ILYCDSWGAGCLTRP [masking moiety PL06] | binds | binds |  |
